Like-named read-outs stand apart in the source and are kept apart here.
Assays:
Assay in all cases: transmission electron microscopy
[1] = target: the molecule itself
[2] = target: the molecule itself; remark: listed apart in the source
[3] = target: the molecule itself; remark: listed apart in the source

B1: human phosphofructokinase-1, platelet isoform (PFKP), recombinant wild type (enzyme, UniProt Q01813-1 1-784, looked up)
chain: MDADDSRAPKGSLRKFLEHLSGAGKAIGVLTSGGDAQGMNAAVRAVVRMGIYVGAKVYFIYEGYQGMVDGGSNIAEADWESVSSILQVGGTIIGSARCQAFRTREGRLKAACNLLQRGITNLCVIGGDGSLTGANLFRKEWSGLLEELARNGQIDKEAVQKYAYLNVVGMVGSIDNDFCGTDMTIGTDSALHRIIEVVDAIMTTAQSHQRTFVLEVMGRHCGYLALVSALACGADWVFLPESPPEEGWEEQMCVKLSENRARKKRLNIIIVAEGAIDTQNKPITSEKIKELVVTQLGYDTRVTILGHVQRGGTPSAFDRILASRMGVEAVIALLEATPDTPACVVSLNGNHAVRLPLMECVQMTQDVQKAMDERRFQDAVRLRGRSFAGNLNTYKRLAIKLPDDQIPKTNCNVAVINVGAPAAGMNAAVRSAVRVGIADGHRMLAIYDGFDGFAKGQIKEIGWTDVGGWTGQGGSILGTKRVLPGKYLEEIATQMRTHSINALLIIGGFEAYLGLLELSAAREKHEEFCVPMVMVPATVSNNVPGSDFSIGADTALNTITDTCDRIKQSASGTKRRVFIIETMGGYCGYLANMGGLAAGADAAYIFEEPFDIRDLQSNVEHLTEKMKTTIQRGLVLRNESCSENYTTDFIYQLYSEEGKGVFDCRKNVLGHMQQGGAPSPFDRNFGTKISARAMEWITAKLKEARGRGKKFTTDDSICVLGISKRNVIFQPVAELKKQTDFEHRIPKEQWWLKLRPLMKILAKYKASYDVSDSGQLEHVQPWSV
[1]
  stoichiometry N: 2
[2]
  stoichiometry N: 4

B2: PFKP-F649L (enzyme, human, UniProt Q01813-1 1-784, looked up)
chain: MDADDSRAPKGSLRKFLEHLSGAGKAIGVLTSGGDAQGMNAAVRAVVRMGIYVGAKVYFIYEGYQGMVDGGSNIAEADWESVSSILQVGGTIIGSARCQAFRTREGRLKAACNLLQRGITNLCVIGGDGSLTGANLFRKEWSGLLEELARNGQIDKEAVQKYAYLNVVGMVGSIDNDFCGTDMTIGTDSALHRIIEVVDAIMTTAQSHQRTFVLEVMGRHCGYLALVSALACGADWVFLPESPPEEGWEEQMCVKLSENRARKKRLNIIIVAEGAIDTQNKPITSEKIKELVVTQLGYDTRVTILGHVQRGGTPSAFDRILASRMGVEAVIALLEATPDTPACVVSLNGNHAVRLPLMECVQMTQDVQKAMDERRFQDAVRLRGRSFAGNLNTYKRLAIKLPDDQIPKTNCNVAVINVGAPAAGMNAAVRSAVRVGIADGHRMLAIYDGFDGFAKGQIKEIGWTDVGGWTGQGGSILGTKRVLPGKYLEEIATQMRTHSINALLIIGGFEAYLGLLELSAAREKHEEFCVPMVMVPATVSNNVPGSDFSIGADTALNTITDTCDRIKQSASGTKRRVFIIETMGGYCGYLANMGGLAAGADAAYIFEEPFDIRDLQSNVEHLTEKMKTTIQRGLVLRNESCSENYTTDLIYQLYSEEGKGVFDCRKNVLGHMQQGGAPSPFDRNFGTKISARAMEWITAKLKEARGRGKKFTTDDSICVLGISKRNVIFQPVAELKKQTDFEHRIPKEQWWLKLRPLMKILAKYKASYDVSDSGQLEHVQPWSV
[3]
  stoichiometry N: 2
